Source: patent publication US20020193570A1

Experiments:
[1] = biological target: IL-12 receptor on human PBMC (human) (UniProt P42701); test: cell-based or functional assay
[2] = biological target: IL-12 receptor on mouse effector cells (mouse) (UniProt Q60837); test: cell-based or functional assay
[3] = biological target: KS antigen recognized by the KS-1/4 antibody (plate-coated / as antigen) (UniProt P16422); test: ELISA, plates coated with KS antigen, detection with anti-human IL-12 p40 antibody
KS antigen recognized by the KS-1/4 antibody (plate-coated / as antigen), sequence (P16422 24-265 limits assumed): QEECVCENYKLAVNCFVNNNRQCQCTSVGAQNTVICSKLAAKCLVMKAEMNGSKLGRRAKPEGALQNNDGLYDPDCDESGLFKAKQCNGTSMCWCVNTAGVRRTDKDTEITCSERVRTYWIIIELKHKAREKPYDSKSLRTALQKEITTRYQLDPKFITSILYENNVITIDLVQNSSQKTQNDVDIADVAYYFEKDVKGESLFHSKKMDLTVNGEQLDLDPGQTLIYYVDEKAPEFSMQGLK

IL-12 receptor on mouse effector cells (mouse), sequence (Q60837 20-738, chain 1 of 2): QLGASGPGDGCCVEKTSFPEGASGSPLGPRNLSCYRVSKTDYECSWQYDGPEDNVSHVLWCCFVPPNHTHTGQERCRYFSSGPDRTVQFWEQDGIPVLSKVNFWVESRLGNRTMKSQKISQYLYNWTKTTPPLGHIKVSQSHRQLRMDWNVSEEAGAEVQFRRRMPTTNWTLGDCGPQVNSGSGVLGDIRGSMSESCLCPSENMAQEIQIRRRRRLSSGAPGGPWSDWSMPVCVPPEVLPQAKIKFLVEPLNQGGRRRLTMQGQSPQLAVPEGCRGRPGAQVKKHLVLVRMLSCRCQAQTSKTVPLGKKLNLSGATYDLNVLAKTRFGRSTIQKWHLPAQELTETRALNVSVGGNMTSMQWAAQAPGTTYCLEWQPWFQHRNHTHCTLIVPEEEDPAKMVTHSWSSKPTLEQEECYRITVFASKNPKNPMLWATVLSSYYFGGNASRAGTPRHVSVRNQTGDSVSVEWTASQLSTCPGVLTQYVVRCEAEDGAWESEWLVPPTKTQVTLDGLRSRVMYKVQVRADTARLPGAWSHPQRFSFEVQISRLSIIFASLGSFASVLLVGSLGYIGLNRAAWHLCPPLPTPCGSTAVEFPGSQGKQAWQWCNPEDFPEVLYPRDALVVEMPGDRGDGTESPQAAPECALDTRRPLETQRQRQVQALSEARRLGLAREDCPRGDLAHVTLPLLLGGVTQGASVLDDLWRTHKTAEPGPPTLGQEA
IL-12 receptor on mouse effector cells (mouse), sequence (P97378 24-874, chain 2 of 2, further chain): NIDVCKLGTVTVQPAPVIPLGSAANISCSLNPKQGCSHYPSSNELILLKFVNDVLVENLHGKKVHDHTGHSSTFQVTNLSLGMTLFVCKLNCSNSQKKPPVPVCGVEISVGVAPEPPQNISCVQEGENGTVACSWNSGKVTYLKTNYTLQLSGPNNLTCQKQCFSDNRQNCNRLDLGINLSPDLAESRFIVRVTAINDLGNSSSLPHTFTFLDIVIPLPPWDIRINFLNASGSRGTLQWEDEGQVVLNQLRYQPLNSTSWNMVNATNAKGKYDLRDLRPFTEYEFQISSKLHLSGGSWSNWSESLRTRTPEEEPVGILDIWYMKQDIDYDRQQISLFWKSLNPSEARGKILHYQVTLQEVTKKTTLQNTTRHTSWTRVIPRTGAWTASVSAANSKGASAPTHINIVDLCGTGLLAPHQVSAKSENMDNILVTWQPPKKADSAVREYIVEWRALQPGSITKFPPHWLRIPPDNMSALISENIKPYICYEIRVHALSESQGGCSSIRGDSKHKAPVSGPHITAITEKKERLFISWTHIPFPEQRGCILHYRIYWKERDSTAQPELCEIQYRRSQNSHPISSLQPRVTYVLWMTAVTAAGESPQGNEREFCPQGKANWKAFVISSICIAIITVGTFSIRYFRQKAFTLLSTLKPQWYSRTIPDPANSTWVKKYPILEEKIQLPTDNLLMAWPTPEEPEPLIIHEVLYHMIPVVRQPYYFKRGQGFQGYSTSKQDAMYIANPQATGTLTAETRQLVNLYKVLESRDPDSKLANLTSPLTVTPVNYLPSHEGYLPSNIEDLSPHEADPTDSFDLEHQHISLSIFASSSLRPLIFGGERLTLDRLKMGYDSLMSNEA
IL-12 receptor on human PBMC (human), sequence (Q99665 24-862, chain 2 of 2, other chains not shown): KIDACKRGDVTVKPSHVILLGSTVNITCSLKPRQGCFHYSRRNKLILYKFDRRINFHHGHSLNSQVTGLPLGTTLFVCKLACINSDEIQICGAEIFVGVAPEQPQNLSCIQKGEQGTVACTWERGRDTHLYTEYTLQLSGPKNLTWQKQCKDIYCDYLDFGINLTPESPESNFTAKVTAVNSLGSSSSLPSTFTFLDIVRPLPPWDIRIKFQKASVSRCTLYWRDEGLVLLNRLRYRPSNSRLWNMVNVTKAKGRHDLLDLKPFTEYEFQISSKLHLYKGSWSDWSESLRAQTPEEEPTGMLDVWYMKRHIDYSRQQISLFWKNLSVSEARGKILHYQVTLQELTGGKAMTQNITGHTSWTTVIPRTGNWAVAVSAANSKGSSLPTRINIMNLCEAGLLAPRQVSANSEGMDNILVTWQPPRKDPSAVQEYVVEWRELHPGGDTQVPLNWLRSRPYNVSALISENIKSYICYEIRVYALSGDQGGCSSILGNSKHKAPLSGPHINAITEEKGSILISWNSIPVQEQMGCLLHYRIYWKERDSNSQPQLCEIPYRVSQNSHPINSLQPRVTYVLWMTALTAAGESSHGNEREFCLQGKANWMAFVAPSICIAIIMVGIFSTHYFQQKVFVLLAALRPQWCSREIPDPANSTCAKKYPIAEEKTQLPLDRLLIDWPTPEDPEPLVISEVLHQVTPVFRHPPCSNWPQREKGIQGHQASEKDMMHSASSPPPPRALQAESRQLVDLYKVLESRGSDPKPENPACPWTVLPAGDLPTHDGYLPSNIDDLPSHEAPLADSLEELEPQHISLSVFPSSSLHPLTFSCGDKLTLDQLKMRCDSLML

“Hu-KS-1/4-mouse p35 human p40 fusion protein (from UniProt P01857 1-330; P43431 23-215; P29460 23-328) (antibody)” was tested, and the induction of IFN-γ secretion from PHA-activated PBMC ([1]; scale: fold less active than Hu-KS-IL-12 with human IL-12 chains) was 4 and the induction of IFN-γ secretion from mouse effector cells pre-stimulated with Concanavalin A ([2]; scale: fold less active than the mouse IL-12 standard) was 50.

“Hu-KS-IL-12 fusion protein with both human IL-12 chains (from UniProt P01857 1-330; P29459 23-219; P29460 23-328) (antibody)” was tested, and the induction of IFN-γ secretion from PHA-activated PBMC (fold less active than the IL-12 standard) [1] was 6.

Work on “single-chain fusion protein with a mouse p35 subunit and a human p40 subunit (KS-1/4 scFv-mouse p35/human p40) (from UniProt P43431 23-215; P29460 23-328)” yielded an induction of IFN-γ secretion from mouse cells (fold less than the mouse IL-12 control) [2] of 50 and an intensity of binding against the whole KS-1/4 antibody (fold lower than whole KS-1/4 antibody) [3] of 3.

“single-chain fusion protein with human p35 and p40 subunits (KS-1/4 scFv-human IL-12) (from UniProt P29459 23-219; P29460 23-328)” was tested, and the intensity of binding against the whole KS-1/4 antibody (fold lower than whole KS-1/4 antibody) [3] was 3.
